# Measurements: PMC12571865, “Profiling of HIV-1 elite neutralizer cohort reveals a CD4bs bnAb for HIV-1 prevention and therapy” (Nature immunology, 2025)
# Molecular target: T1, BG505 SOSIP.664 Env trimer (preparation for cryo-EM) (HIV-1 (strain BG505), UniProt Q2N0S6)
# T1 construct: also called BG505_(SOSIP) trimer; source: Expi293F, transient co-transfection with a furin-encoding plasmid; copies: 3 + 3
# Assay: cryo-EM structure; Fab–trimer complexes in TBS, incubated overnight at room temperature: 04_A06–PGDM1400–BG505 at 3.6:1.2:1 (Fab:Fab:trimer), purified on Superose-6 Increase; 01_D03–BG505 and 05_B08–BG505 at 3.6:1 (Fab:trimer) without further SEC
# Conditions: both partners purified
binder,measurement,value
"PGDM1400 Fab (Fab, V domains shown) VH: QAQLVQSGPEVRKPGTSVKVSCKAPGNTLKTYDLHWVRSVPGQGLQWMGWISHEGDKKVIVERFKAKVTIDWDRSTNTAYLQLSGLTSGDTAVYYCAKGSKHRLRDYALYDDDGALNWAVDVDYLSNLEFWGQGTAVTVSS VL: DFVLTQSPHSLSVTPGESASISCKSSHSLIHGDRNNYLAWYVQKPGRSPQLLIYLASSRASGVPDRFSGSGSDKDFTLKISRVETEDVGTYYCMQGRESPWTFGQGTKVDIK",stoichiometry N,1 Fab per trimer
